The stoichiometry N is the number of molecules, sites or subunits per partner or assembly.

For one substance, stoichiometry N results are on record in publication PMC6233088.

This experiment addresses RGA5_S (RGA5 982-1116), small C-terminal fragment of RGA5 carrying the HMA domain (rice) (UniProt F7J0N2). Kind of experiment: SEC. (SEC sorts molecules by how far they enter the pores of the column.)
Sequence of UniProt F7J0N2 (F7J0N2 982-1116): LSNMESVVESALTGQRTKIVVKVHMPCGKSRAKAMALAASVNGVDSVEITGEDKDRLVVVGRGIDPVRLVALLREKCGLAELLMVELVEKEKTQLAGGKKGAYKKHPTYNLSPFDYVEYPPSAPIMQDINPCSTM

For the substance “dSP-AVR1-CO39 (AVR1-CO39 with its signal peptide deleted), wild type, recombinant (natural protein)”, the stoichiometry N was determined as 1.
